Laboratory results from publication PMC10616211.

Assays:
[1] = biological target: cytosolic fragment of MFN2 (modified, truncated human MFN2, residues 1–19 and 401–705 deleted) (human) (UniProt O95140); assay: ELISA; MFN2 coated on plates (0.1 µM); HEK293T lysate with DIAPH1-eCFP added in TBS pH 6.2, overnight 4 °C; anti-GFP-HRP; one site total and nonspecific binding fit
[2] = biological target: cytosolic fragment of MFN2 (modified, truncated human MFN2, residues 1–19 and 401–705 deleted) (human) (UniProt O95140); assay: ELISA; as the pH 6.2 plate assay, with purified DID as competitor (1 µM in the results; wells treated with 2 µM DID in the methods)
[3] = biological target: cytosolic fragment of MFN2 (modified, truncated human MFN2, residues 1–19 and 401–705 deleted) (human) (UniProt O95140); assay: ELISA; MFN2 coated on plates (0.1 µM); HEK293T lysate with DIAPH1-eCFP added in TBS pH 7.2, overnight 4 °C; anti-GFP-HRP; one site total and nonspecific binding fit

Chain of DIAPH1-eCFP (O60610 whole entry, the tested form may be a part): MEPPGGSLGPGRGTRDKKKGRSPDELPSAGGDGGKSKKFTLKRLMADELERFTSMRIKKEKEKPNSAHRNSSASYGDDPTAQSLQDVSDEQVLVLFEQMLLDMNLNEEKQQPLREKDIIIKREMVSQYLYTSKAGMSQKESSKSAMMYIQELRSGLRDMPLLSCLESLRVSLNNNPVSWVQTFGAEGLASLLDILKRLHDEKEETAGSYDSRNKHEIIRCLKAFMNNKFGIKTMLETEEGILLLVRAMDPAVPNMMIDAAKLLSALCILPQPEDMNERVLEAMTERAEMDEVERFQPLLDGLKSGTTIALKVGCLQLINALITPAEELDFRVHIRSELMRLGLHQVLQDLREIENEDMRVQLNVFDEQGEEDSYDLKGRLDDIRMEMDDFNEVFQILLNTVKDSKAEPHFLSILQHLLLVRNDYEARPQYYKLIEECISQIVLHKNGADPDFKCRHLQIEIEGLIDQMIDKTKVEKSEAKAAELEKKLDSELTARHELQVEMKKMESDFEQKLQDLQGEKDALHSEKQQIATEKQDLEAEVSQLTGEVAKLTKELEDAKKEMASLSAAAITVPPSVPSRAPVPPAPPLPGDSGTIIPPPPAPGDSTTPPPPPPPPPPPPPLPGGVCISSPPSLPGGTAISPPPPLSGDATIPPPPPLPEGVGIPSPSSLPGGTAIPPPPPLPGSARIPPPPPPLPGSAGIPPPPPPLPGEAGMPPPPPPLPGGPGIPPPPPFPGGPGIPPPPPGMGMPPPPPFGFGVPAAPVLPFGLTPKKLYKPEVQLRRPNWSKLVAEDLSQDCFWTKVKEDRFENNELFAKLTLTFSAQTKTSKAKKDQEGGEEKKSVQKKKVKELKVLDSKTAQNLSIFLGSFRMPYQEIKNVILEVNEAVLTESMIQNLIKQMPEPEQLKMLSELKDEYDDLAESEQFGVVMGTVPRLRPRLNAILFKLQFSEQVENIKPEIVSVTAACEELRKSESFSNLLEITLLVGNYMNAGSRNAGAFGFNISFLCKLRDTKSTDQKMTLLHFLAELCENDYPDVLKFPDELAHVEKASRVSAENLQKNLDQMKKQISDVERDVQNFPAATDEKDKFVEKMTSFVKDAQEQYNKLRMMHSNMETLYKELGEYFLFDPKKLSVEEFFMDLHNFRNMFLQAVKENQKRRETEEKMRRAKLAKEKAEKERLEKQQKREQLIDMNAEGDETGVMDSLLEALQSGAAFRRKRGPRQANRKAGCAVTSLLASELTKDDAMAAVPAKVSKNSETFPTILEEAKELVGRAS

Substance: DIAPH1-eCFP (from UniProt O60610 1-1272) (natural protein)
- Kd [1]: 10 pM
- KD in the presence of 1 µM DID [2]: 220 pM
- Kd [3]: 700 pM
